Cross-reactivity data for 1 substance are collected here from patent US20250108132A1.

This assay deals with purified cyno C3 protein (CompTech, CY113) (cynomolgous monkey (Macaca fascicularis)). The assay can be described thus: sandwich ELISA; known concentrations of purified cyno C3 read on the human C3 kit, relative to human C3. In general terms: ELISA stands for enzyme-linked immunosorbent assay.

“human C3 ELISA kit (Abcam, ab108823) (antibody)” came in with a cross-reactivity of 30%.
